Test results as given in paper PMC5680793.

Legend:
[1] = molecular target: His-tagged mouse FcRn (mouse) (UniProt Q61559); experiment: BLI
[2] = molecular target: Mouse IgG2b (wild-type) (mouse); experiment: ITC

Sequence of UniProt Q61559 (Q61559 22-297, chain 1 of 2): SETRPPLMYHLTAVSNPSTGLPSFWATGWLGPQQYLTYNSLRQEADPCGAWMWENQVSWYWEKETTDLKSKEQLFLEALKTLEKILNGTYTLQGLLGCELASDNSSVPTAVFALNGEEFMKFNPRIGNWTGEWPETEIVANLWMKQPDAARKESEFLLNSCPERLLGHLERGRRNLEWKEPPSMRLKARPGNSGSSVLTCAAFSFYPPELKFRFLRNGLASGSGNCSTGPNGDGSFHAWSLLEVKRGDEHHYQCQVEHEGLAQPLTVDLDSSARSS
Sequence of UniProt Q61559 (P01887 21-119, chain 2 of 2, further chain): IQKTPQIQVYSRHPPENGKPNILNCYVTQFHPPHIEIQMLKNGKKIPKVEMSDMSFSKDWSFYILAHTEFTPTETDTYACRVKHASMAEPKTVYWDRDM

Substance | fold change of relative kon against wild-type IgG2a [1] [fold] | Kd [2] [nM]
Mouse IgG2a P307T, Q309L (antibody) | 2.7 | –
Z34C peptide | – | 2600
